Assay results published in the supplement of paper PMC10567573.

B1: UBE2R2 (parent)
chain: DPQSGELPSERWNPTQNVRTILLS

Variants of: B1
Assay: protein stability index of a GFP-peptide fusion (GPS, HEK-293T) (PSI 1-6); higher = more stable
Settings: c terminus: a fixed tail appended
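Note: lentivirally expressed fusions sorted by FACS into six bins by GFP to DsRed ratio, PSI derived from sequencing read proportions per bin multiplied by bin number.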

In order of rising protein stability index:
1. DPQSGELPSERWNPTQNVWTILLS [R19W]  1.85
2. DPQSGELPSERWNPWQNVRTILLS [T15W]  2.13
3. DPQSGELPSERWNPTQIVRTILLS [N17I]  2.24
4. DPQSGELPSERWNPTQNVVTILLS [R19V]  2.28
5. DPQSGELPSERWNFTQNVRTILLS [P14F]  2.32
6. DPQSGELPSERWNPTQYVRTILLS [N17Y]  2.38
7. DPQSGELPSERWNPTQMVRTILLS [N17M]  2.39
8. DPQSGELPSERWNPTQVVRTILLS [N17V]  2.4
9. DPQSGELPSERWGPTQNVRTILLS [N13G]  2.46
10. DPQSGELPSERWNPFQNVRTILLS [T15F]  2.51
11. DPQSGELPSERWNPTQLVRTILLS [N17L]  2.54
12. DPQSGELPSERWNPTQWVRTILLS [N17W]  2.59
13. DPQSGELPSERWNPTQNVFTILLS [R19F]  2.6
14. DPQSGELPSERWFPTQNVRTILLS [N13F]  2.66
15. DPQSGELPSERWNPTQFVRTILLS [N17F]  2.75
16. DPQSGELPSEIWNPTQNVRTILLS [R11I]  2.77
17. DPQSGELPSERWNPIQNVRTILLS [T15I]  2.78
18. DPQSGELPSERWCPTQNVRTILLS [N13C]  2.78
19. DPQSGELPSERWNLTQNVRTILLS [P14L]  2.79
20. DPQSGELPSEWWNPTQNVRTILLS [R11W]  2.79
21. DPQSGELPSERWNITQNVRTILLS [P14I]  2.8
22. DPQSGELPSEYWNPTQNVRTILLS [R11Y]  2.82
23. DPQSGELPSERWNPLQNVRTILLS [T15L]  2.86
24. DPQSGELPSERWNPMQNVRTILLS [T15M]  2.86
25. DPQSGELPSERWIPTQNVRTILLS [N13I]  2.87
26. DPQSGELPSERWWPTQNVRTILLS [N13W]  2.87
27. DPQSGELPSERWNPTQSVRTILLS [N17S]  2.9
28. DPQSGELPSERWNHTQNVRTILLS [P14H]  2.98
29. DPQSGELPSERWNYTQNVRTILLS [P14Y]  3.01
30. DPQSGELPSERWNPTQHVRTILLS [N17H]  3.04
31. DPQSGELPSERWNPTQAVRTILLS [N17A]  3.06
32. DPQSGELPSERWNMTQNVRTILLS [P14M]  3.09
33. DPQSGELPSERWNWTQNVRTILLS [P14W]  3.12
34. DPQSGELPSERWNPPQNVRTILLS [T15P]  3.14
35. DPQSGELPSERWNPAQNVRTILLS [T15A]  3.15
36. DPQSGELPSERWYPTQNVRTILLS [N13Y]  3.16
37. DPQSGELPSERWNNTQNVRTILLS [P14N]  3.17
38. DPQSGELPSERWVPTQNVRTILLS [N13V]  3.17
39. DPQSGELPSERWNPYQNVRTILLS [T15Y]  3.22
40. DPQSGELPSEMWNPTQNVRTILLS [R11M]  3.22
41. DPQSGELPSERWNPTQKVRTILLS [N17K]  3.23
42. DPQSGELPSELWNPTQNVRTILLS [R11L]  3.24
43. DPQSGELPSERWNPCQNVRTILLS [T15C]  3.26
44. DPQSGELPSERWHPTQNVRTILLS [N13H]  3.3
45. DPQSGELPSEHWNPTQNVRTILLS [R11H]  3.3
46. DPQSGELPSERWRPTQNVRTILLS [N13R]  3.31
47. DPQSGELPSERWNATQNVRTILLS [P14A]  3.34
48. DPQSGELPSERWNCTQNVRTILLS [P14C]  3.35
49. DPQSGELPSERWNPSQNVRTILLS [T15S]  3.39
50. DPQSGELPSERWNPTQRVRTILLS [N17R]  3.4
51. DPQSGELPSERWLPTQNVRTILLS [N13L]  3.47
52. DPQSGELPSERWNPVQNVRTILLS [T15V]  3.48
53. DPQSGELPSERWNVTQNVRTILLS [P14V]  3.48
54. DPQSGELPSENWNPTQNVRTILLS [R11N]  3.48
55. DPQSGELPSERWNPKQNVRTILLS [T15K]  3.5
56. DPQSGELPSEKWNPTQNVRTILLS [R11K]  3.5
57. DPQSGELPSERWNPTQTVRTILLS [N17T]  3.51
58. DPQSGELPSERWNPGQNVRTILLS [T15G]  3.53
59. DPQSGELPSERWNKTQNVRTILLS [P14K]  3.56
60. DPQSGELPSERWNPTQEVRTILLS [N17E]  3.56
61. DPQSGELPSESWNPTQNVRTILLS [R11S]  3.56
62. DPQSGELPSERWNPEQNVRTILLS [T15E]  3.6
63. DPQSGELPSERWNPTQQVRTILLS [N17Q]  3.6
64. DPQSGELPSERWNPTQNVATILLS [R19A]  3.61
65. DPQSGELPSEVWNPTQNVRTILLS [R11V]  3.62
66. DPQSGELPSERWNPQQNVRTILLS [T15Q]  3.63
67. DPQSGELPSERWNSTQNVRTILLS [P14S]  3.69
68. DPQSGELPSERWNGTQNVRTILLS [P14G]  3.71
69. DPQSGELPSERWPPTQNVRTILLS [N13P]  3.71
70. DPQSGELPSEPWNPTQNVRTILLS [R11P]  3.71
71. DPQSGELPSERWNPRQNVRTILLS [T15R]  3.76
72. DPQSGELPSERWTPTQNVRTILLS [N13T]  3.76
73. DPQSGELPSERWAPTQNVRTILLS [N13A]  3.78
74. DPQSGELPSERWNPHQNVRTILLS [T15H]  3.79
75. DPQSGELPSERWMPTQNVRTILLS [N13M]  3.79
76. DPQSGELPSERWEPTQNVRTILLS [N13E]  3.83
77. DPQSGELPSERWNPTQNVPTILLS [R19P]  3.87
78. DPQSGELPSERWQPTQNVRTILLS [N13Q]  3.87
79. DPQSGELPSERWKPTQNVRTILLS [N13K]  3.88
80. DPQSGELPSERWNPNQNVRTILLS [T15N]  3.89
81. DPQSGELPSERWNQTQNVRTILLS [P14Q]  3.93
82. DPQSGELPSETWNPTQNVRTILLS [R11T]  3.98
83. DPQSGELPSERWNPTQDVRTILLS [N17D]  3.99
84. DPQSGELPSERWSPTQNVRTILLS [N13S]  4
85. DPQSGELPSEQWNPTQNVRTILLS [R11Q]  4.04
86. DPQSGELPSERWNPTQNVSTILLS [R19S]  4.08
87. DPQSGELPSERWNETQNVRTILLS [P14E]  4.08
88. DPQSGELPSERWNDTQNVRTILLS [P14D]  4.12
89. DPQSGELPSERWNTTQNVRTILLS [P14T]  4.13
90. DPQSGELPSERWNPDQNVRTILLS [T15D]  4.15
91. DPQSGELPSERWNPTQPVRTILLS [N17P]  4.18
92. DPQSGELPSERWDPTQNVRTILLS [N13D]  4.22
93. DPQSGELPSERWNRTQNVRTILLS [P14R]  4.28
94. DPQSGELPSERWNPTQGVRTILLS [N17G]  4.3
